Assays:
His-sclerostin loop2 = assay: BLI; Octet RED96e; Figure 6B, 'ApoER2 to sclerostin' and 'to sclerostin loop2'; the methods tell of biotin-ApoER2 loaded on streptavidin biosensors, PBS with 0.02% Tween 20; partner loaded in this panel not given
[1] = target: full-length His-sclerostin (not stated (recombinant human and mouse sclerostin used in the paper)) (UniProt Q99P68); assay: as above
[2] = target: ApoER2 protein (R&D, 3520-AR) (UniProt Q14114); assay: BLI; Octet RED96e; Figure S6B, 'sclerostin to ApoER2'; partner loaded in this panel not given
Chain of ApoER2 protein (R&D, 3520-AR) (Q14114 42-826): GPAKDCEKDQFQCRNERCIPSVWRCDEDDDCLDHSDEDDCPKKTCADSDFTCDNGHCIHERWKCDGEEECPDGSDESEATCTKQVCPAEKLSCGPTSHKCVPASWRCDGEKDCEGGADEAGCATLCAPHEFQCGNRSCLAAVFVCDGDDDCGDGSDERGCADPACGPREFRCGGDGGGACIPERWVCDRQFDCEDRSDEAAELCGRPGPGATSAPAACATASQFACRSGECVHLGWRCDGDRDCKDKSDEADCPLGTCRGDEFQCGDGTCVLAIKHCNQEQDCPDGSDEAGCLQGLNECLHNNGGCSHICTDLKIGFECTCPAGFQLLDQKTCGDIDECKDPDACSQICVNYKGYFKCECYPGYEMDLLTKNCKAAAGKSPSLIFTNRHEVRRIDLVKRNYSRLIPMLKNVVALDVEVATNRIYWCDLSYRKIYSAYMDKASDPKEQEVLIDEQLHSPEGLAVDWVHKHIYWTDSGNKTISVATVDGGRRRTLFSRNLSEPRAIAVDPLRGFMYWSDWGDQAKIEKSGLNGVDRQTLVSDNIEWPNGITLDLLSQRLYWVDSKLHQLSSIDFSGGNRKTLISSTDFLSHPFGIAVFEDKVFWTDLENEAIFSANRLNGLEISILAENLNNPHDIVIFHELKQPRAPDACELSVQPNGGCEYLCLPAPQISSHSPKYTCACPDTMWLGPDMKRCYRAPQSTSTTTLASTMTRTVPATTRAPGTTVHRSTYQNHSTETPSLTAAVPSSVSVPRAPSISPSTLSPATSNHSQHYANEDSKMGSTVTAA

Chain of full-length His-sclerostin (not stated (recombinant human and mouse sclerostin used in the paper)) (Q99P68 24-211): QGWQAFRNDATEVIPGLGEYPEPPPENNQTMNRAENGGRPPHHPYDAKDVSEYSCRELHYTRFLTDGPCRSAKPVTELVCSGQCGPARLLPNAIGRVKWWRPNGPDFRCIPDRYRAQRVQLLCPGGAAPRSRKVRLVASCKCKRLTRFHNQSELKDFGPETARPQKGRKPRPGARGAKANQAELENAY
Chain of full-length His-sclerostin (Q99P68 24-211): as above

Substance | Kd (His-sclerostin loop2) | Kd [1] | Kd [2]
ApoER2 protein (R&D, 3520-AR) (from UniProt Q14114 42-826) (receptor) | 23 nM | 3.8 nM | 
full-length His-sclerostin (from UniProt Q99P68 24-211) (natural protein) |  |  | 2.1 nM
